Data on one substance can be found in patent publication US20160369008A1.

Experiment [1] addresses recombinant active human PAI-1 (human) (UniProt P05121). Put plainly: cell-based or functional assay.
Experiment [2] has as its target active human PAI-1 in complex with vitronectin (human) (UniProt P05121). Put plainly: ELISA, VTN-PAI-1 complex on the plate.
Experiment [3] concerns the target human PAI-1 in complex with tPA (human) (UniProt P05121). Kind of experiment: ELISA, tPA-PAI-1 complex on the plate.
The target in experiment [4] is human PAI-1 in complex with uPA (human) (UniProt P05121). Put plainly: ELISA, uPA-PAI-1 complex on the plate.
For experiment [5], the target named is latent human PAI-1 (human) (UniProt P05121). Put plainly: ELISA, latent human PAI-1 on the plate.
Experiment [6] has as its target latent monkey PAI-1 (monkey) (UniProt G7P138). Put plainly: ELISA, latent monkey PAI-1 on the plate.
Experiment [7] concerns the target active monkey PAI-1 in complex with vitronectin (monkey). Put plainly: ELISA, VTN-monkey PAI-1 complex on the plate.
For experiment [8], the target named is tPA-monkey PAI-1 complex (monkey). Put plainly: ELISA, tPA-monkey PAI-1 complex on the plate.
The target of experiment [9] is uPA-monkey PAI-1 complex (monkey) (UniProt P00749). Kind of experiment: ELISA, uPA-monkey PAI-1 complex on the plate.
Experiment [10] deals with active PAI-1 in human plasma (human) (UniProt P05121). Kind of experiment: ELISA: inhibition of the capture of active PAI-1 of human plasma on immobilised uPA (Example 9).
For experiment [11], the target named is active PAI-1 in monkey plasma (cynomolgus monkey) (UniProt G7P138). Kind of experiment: ELISA: inhibition of the capture of active PAI-1 of monkey plasma on immobilised uPA (Example 9).

Sequence of MEDI-579 (antibody) (VH): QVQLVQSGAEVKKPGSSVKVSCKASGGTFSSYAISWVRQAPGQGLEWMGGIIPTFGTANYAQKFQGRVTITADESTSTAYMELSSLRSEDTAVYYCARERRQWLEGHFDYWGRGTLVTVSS
Sequence of MEDI-579 (antibody) (VL): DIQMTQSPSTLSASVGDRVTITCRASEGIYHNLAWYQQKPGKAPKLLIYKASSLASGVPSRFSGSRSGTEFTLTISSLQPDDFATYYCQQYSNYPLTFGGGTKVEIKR
Sequence of tPA-monkey PAI-1 complex (monkey) (P00750 36-562, one chain of several): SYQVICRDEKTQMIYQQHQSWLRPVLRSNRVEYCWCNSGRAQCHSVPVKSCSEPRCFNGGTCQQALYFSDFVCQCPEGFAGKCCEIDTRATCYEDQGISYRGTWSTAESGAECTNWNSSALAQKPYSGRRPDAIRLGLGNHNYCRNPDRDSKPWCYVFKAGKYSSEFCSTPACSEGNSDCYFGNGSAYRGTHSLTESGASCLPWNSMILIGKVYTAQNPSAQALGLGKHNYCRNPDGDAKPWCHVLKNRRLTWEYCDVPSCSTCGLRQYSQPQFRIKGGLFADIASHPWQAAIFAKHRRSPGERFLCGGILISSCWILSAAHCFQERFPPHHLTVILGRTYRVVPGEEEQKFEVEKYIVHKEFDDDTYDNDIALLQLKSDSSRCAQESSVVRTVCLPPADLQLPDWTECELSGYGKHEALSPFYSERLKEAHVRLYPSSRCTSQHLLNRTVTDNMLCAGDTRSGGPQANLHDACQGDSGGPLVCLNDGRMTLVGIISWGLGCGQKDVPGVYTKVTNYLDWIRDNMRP
Sequence of active monkey PAI-1 in complex with vitronectin (monkey) (P04004 20-478, one chain of several): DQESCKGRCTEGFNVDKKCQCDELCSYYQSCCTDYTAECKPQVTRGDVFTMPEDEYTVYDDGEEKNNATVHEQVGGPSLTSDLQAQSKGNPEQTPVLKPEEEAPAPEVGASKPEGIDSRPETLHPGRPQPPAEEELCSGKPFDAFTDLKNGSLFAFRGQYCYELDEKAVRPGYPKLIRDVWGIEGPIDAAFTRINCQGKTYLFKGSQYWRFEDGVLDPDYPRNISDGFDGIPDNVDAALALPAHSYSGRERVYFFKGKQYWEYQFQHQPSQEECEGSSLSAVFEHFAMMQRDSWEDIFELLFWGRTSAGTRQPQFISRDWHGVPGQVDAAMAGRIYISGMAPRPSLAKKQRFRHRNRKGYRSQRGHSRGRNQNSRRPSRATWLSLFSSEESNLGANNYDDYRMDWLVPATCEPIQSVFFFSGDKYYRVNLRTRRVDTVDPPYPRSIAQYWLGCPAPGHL

In the case of MEDI-579 (antibody), the EC50 value, taking the activity of uPA as an indicator (cleavage of a fluorogenic uPA substrate peptide) in [1] came to 42.1 ng/mL. For the same substance, the EC50 was 5.2 ng/mL in [2]; 3.2 ng/mL in experiment [3]; 6.1 ng/mL in experiment [4]; 22.1 ng/mL in experiment [5]; 48.2 ng/mL in experiment [6]; 4.1 ng/mL in experiment [7]. Further, the figures for the EC50 in experiment [8] and in experiment [9] were 4.3 ng/mL and 5.4 ng/mL, respectively. The IC50 was 0.73 ng/mL in experiment [10] and 0.83 ng/mL in experiment [11].
